Data as given in IntAct's records for PubMed 24275654.
Each block holds one substance with its values, some of them ahead of it.

Tests used:
tbb4a_human TUBB4A = tbb4a_human TUBB4A (UniProt P04350)
tbb5_human TUBB = tbb5_human TUBB (UniProt P07437)
tbb6_human TUBB6 = tbb6_human TUBB6 (UniProt Q9BUF5)
Sequence of UniProt Q9BUF5 (Q9BUF5 whole entry): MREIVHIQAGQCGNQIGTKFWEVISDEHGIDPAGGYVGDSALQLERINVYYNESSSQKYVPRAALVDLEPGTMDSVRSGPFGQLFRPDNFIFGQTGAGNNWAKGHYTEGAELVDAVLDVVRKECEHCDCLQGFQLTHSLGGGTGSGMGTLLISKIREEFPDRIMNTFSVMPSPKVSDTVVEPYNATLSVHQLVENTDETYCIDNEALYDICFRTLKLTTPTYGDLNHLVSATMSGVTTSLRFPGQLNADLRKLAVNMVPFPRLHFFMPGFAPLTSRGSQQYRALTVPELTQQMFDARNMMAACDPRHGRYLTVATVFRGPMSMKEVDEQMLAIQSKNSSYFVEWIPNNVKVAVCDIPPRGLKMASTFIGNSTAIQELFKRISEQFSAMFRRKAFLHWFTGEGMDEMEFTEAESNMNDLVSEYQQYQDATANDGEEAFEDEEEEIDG

Sequence of UniProt P04350 (P04350 whole entry): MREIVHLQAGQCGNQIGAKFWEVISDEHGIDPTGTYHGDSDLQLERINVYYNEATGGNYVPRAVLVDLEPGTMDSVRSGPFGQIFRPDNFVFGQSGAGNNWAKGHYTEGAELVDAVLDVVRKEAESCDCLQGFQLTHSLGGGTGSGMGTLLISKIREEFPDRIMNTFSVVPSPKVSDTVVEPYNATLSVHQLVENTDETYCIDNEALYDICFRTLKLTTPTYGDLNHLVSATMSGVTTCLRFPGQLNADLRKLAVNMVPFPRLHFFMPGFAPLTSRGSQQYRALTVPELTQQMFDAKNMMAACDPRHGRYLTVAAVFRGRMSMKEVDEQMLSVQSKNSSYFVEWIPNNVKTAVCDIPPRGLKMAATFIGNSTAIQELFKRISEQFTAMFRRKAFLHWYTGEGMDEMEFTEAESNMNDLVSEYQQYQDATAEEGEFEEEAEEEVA
Sequence of UniProt P07437 (P07437 whole entry): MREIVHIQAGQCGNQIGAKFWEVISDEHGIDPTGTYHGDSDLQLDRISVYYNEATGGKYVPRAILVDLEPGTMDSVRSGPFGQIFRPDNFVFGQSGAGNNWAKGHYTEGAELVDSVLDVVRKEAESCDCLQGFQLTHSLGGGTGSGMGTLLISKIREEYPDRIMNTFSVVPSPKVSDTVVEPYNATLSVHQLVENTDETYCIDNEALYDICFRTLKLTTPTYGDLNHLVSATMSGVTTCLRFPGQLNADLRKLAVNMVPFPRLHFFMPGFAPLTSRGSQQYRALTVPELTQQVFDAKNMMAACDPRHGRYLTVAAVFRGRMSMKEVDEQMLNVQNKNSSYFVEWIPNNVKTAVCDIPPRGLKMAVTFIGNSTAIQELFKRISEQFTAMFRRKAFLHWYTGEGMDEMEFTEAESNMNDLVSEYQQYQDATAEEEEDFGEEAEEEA

Substance: Leucine-rich repeat serine/threonine-protein kinase 2 (Homo sapiens), Q5S007 T1343A
effect of a mutation on the interaction (tbb4a_human TUBB4A): increasing interaction

Substance: Leucine-rich repeat serine/threonine-protein kinase 2 (Homo sapiens), Q5S007 R1441G
effect of a mutation on the interaction (tbb4a_human TUBB4A): decreasing interaction
effect of a mutation on the interaction (tbb5_human TUBB): decreasing interaction

Substance: Leucine-rich repeat serine/threonine-protein kinase 2 (Homo sapiens), Q5S007 T1343D
effect of a mutation on the interaction (tbb4a_human TUBB4A): decreasing interaction
effect of a mutation on the interaction (tbb5_human TUBB): decreasing interaction

Substance: Leucine-rich repeat serine/threonine-protein kinase 2 (Homo sapiens), Q5S007 T1491A
effect of a mutation on the interaction (tbb4a_human TUBB4A): increasing interaction

Substance: Leucine-rich repeat serine/threonine-protein kinase 2 (Homo sapiens), Q5S007 K1347A
effect of a mutation on the interaction (tbb4a_human TUBB4A): disrupting interaction
effect of a mutation on the interaction (tbb5_human TUBB): disrupting interaction
effect of a mutation on the interaction (tbb6_human TUBB6): disrupting interaction

Other lines, results leading:

effect of a mutation on the interaction (tbb4a_human TUBB4A): decreasing interaction
effect of a mutation on the interaction (tbb5_human TUBB): decreasing interaction
Substance: Leucine-rich repeat serine/threonine-protein kinase 2 (Homo sapiens), Q5S007 R1441H

effect of a mutation on the interaction (tbb4a_human TUBB4A): increasing interaction
effect of a mutation on the interaction (tbb5_human TUBB): increasing interaction
Substance: Leucine-rich repeat serine/threonine-protein kinase 2 (Homo sapiens), Q5S007 R1441C

effect of a mutation on the interaction (tbb4a_human TUBB4A): decreasing interaction
Substance: Leucine-rich repeat serine/threonine-protein kinase 2 (Homo sapiens), Q5S007 T1491D
